This note sets out measurements from patent publication US20190233495A1 (Sanofi, published 2019).

Non-standard residues stand in square brackets, D forms with d. 1Nal = N[C@@H](Cc1cccc2ccccc12)C(=O)O; Nle = CCCC[C@H](N)C(=O)O; Aib = CC(C)(N)C(=O)O

The target in the experiment is T1, RXFP1 receptor (UniProt Q9HBX9 1-757, limits assumed).
T1 sequence (looked up): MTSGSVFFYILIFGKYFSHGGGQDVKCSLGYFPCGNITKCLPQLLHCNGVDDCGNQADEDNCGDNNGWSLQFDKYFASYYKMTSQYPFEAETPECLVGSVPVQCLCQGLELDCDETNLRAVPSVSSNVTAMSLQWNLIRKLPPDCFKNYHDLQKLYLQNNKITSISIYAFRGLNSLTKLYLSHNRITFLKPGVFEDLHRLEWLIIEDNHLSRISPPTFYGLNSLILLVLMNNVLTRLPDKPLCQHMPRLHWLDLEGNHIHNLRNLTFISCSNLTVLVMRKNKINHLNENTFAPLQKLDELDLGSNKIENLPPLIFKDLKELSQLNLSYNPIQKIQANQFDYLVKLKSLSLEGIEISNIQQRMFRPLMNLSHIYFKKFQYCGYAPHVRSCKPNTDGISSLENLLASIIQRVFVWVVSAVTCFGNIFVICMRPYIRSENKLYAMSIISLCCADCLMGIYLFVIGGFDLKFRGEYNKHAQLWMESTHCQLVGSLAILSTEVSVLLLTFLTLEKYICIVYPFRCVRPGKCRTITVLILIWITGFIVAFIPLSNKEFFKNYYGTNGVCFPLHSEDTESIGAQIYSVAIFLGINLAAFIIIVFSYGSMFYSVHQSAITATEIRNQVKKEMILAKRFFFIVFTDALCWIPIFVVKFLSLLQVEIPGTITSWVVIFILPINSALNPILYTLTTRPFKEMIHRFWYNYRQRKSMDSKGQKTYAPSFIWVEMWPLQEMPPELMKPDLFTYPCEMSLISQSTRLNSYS
Description: cell-based or functional assay.

B1: SEQ ID NO: 31 (peptide)
peptide: Ac-LEGREKVRAK(Ac)I[Aib][Aib]EG[Nle]STWS[Aib]RKQ-NH2
SMILES: CCCC[C@H](NC(=O)CNC(=O)[C@H](CCC(=O)O)NC(=O)C(C)(C)NC(=O)C(C)(C)NC(=O)[C@@H](NC(=O)[C@H](CCCCNC(C)=O)NC(=O)[C@H](C)NC(=O)[C@H](CCCNC(=N)N)NC(=O)[C@@H](NC(=O)[C@H](CCCCN)NC(=O)[C@H](CCC(=O)O)NC(=O)[C@H](CCCNC(=N)N)NC(=O)CNC(=O)[C@H](CCC(=O)O)NC(=O)[C@H](CC(C)C)NC(C)=O)C(C)C)[C@@H](C)CC)C(=O)N[C@@H](CO)C(=O)N[C@H](C(=O)N[C@@H](Cc1c[nH]c2ccccc12)C(=O)N[C@@H](CO)C(=O)NC(C)(C)C(=O)N[C@@H](CCCNC(=N)N)C(=O)N[C@@H](CCCCN)C(=O)N[C@@H](CCC(N)=O)C(N)=O)[C@@H](C)O
Consider B1, for which the “cAMP assay in OVCAR 5 cells EC50” value was 51.7 nM and the “cAMP assay in OVCAR 5 cells Emax” value is 96%.

B2: SEQ ID NO: 27 (peptide)
peptide: Ac-LEGREKVRAK(Ac)I[Aib][Aib]EG[Nle]STWS[Aib]RKK(Ac)K-NH2
SMILES: CCCC[C@H](NC(=O)CNC(=O)[C@H](CCC(=O)O)NC(=O)C(C)(C)NC(=O)C(C)(C)NC(=O)[C@@H](NC(=O)[C@H](CCCCNC(C)=O)NC(=O)[C@H](C)NC(=O)[C@H](CCCNC(=N)N)NC(=O)[C@@H](NC(=O)[C@H](CCCCN)NC(=O)[C@H](CCC(=O)O)NC(=O)[C@H](CCCNC(=N)N)NC(=O)CNC(=O)[C@H](CCC(=O)O)NC(=O)[C@H](CC(C)C)NC(C)=O)C(C)C)[C@@H](C)CC)C(=O)N[C@@H](CO)C(=O)N[C@H](C(=O)N[C@@H](Cc1c[nH]c2ccccc12)C(=O)N[C@@H](CO)C(=O)NC(C)(C)C(=O)N[C@@H](CCCNC(=N)N)C(=O)N[C@@H](CCCCN)C(=O)N[C@@H](CCCCNC(C)=O)C(=O)N[C@@H](CCCCN)C(N)=O)[C@@H](C)O
B2: the “cAMP assay in OVCAR 5 cells EC50” value stood at 9.5 nM and the “cAMP assay in OVCAR 5 cells Emax” value came to 95%.

B3: SEQ ID NO: 33 (peptide)
peptide: Ac-LEGREKVRK(Ac)QI[Aib][Aib]EG[Nle]STWS[Aib]RKK-NH2
SMILES: CCCC[C@H](NC(=O)CNC(=O)[C@H](CCC(=O)O)NC(=O)C(C)(C)NC(=O)C(C)(C)NC(=O)[C@@H](NC(=O)[C@H](CCC(N)=O)NC(=O)[C@H](CCCCNC(C)=O)NC(=O)[C@H](CCCNC(=N)N)NC(=O)[C@@H](NC(=O)[C@H](CCCCN)NC(=O)[C@H](CCC(=O)O)NC(=O)[C@H](CCCNC(=N)N)NC(=O)CNC(=O)[C@H](CCC(=O)O)NC(=O)[C@H](CC(C)C)NC(C)=O)C(C)C)[C@@H](C)CC)C(=O)N[C@@H](CO)C(=O)N[C@H](C(=O)N[C@@H](Cc1c[nH]c2ccccc12)C(=O)N[C@@H](CO)C(=O)NC(C)(C)C(=O)N[C@@H](CCCNC(=N)N)C(=O)N[C@@H](CCCCN)C(=O)N[C@@H](CCCCN)C(N)=O)[C@@H](C)O
Regarding B3, the “cAMP assay in OVCAR 5 cells EC50” value came to 86.3 nM and the “cAMP assay in OVCAR 5 cells Emax” value was 105%.

B4: SEQ ID NO: 32 (peptide)
peptide: Ac-LEGREKVRAK(Ac)I[Aib][Aib]EG[Nle]STWS[Aib]RKL-NH2
SMILES: CCCC[C@H](NC(=O)CNC(=O)[C@H](CCC(=O)O)NC(=O)C(C)(C)NC(=O)C(C)(C)NC(=O)[C@@H](NC(=O)[C@H](CCCCNC(C)=O)NC(=O)[C@H](C)NC(=O)[C@H](CCCNC(=N)N)NC(=O)[C@@H](NC(=O)[C@H](CCCCN)NC(=O)[C@H](CCC(=O)O)NC(=O)[C@H](CCCNC(=N)N)NC(=O)CNC(=O)[C@H](CCC(=O)O)NC(=O)[C@H](CC(C)C)NC(C)=O)C(C)C)[C@@H](C)CC)C(=O)N[C@@H](CO)C(=O)N[C@H](C(=O)N[C@@H](Cc1c[nH]c2ccccc12)C(=O)N[C@@H](CO)C(=O)NC(C)(C)C(=O)N[C@@H](CCCNC(=N)N)C(=O)N[C@@H](CCCCN)C(=O)N[C@@H](CC(C)C)C(N)=O)[C@@H](C)O
Turning to B4, the “cAMP assay in OVCAR 5 cells EC50” value is 38.6 nM and the “cAMP assay in OVCAR 5 cells Emax” value is 95%.

B5: SEQ ID NO: 28 (peptide)
peptide: Ac-LEGREKVRAK(Ac)I[Aib][Aib]EG[Nle]STWS[Aib]RKK(Ac)K(Ac)-NH2
SMILES: CCCC[C@H](NC(=O)CNC(=O)[C@H](CCC(=O)O)NC(=O)C(C)(C)NC(=O)C(C)(C)NC(=O)[C@@H](NC(=O)[C@H](CCCCNC(C)=O)NC(=O)[C@H](C)NC(=O)[C@H](CCCNC(=N)N)NC(=O)[C@@H](NC(=O)[C@H](CCCCN)NC(=O)[C@H](CCC(=O)O)NC(=O)[C@H](CCCNC(=N)N)NC(=O)CNC(=O)[C@H](CCC(=O)O)NC(=O)[C@H](CC(C)C)NC(C)=O)C(C)C)[C@@H](C)CC)C(=O)N[C@@H](CO)C(=O)N[C@H](C(=O)N[C@@H](Cc1c[nH]c2ccccc12)C(=O)N[C@@H](CO)C(=O)NC(C)(C)C(=O)N[C@@H](CCCNC(=N)N)C(=O)N[C@@H](CCCCN)C(=O)N[C@@H](CCCCNC(C)=O)C(=O)N[C@@H](CCCCNC(C)=O)C(N)=O)[C@@H](C)O
With B5, the “cAMP assay in OVCAR 5 cells EC50” value was 22.5 nM and the “cAMP assay in OVCAR 5 cells Emax” value was found to be 92%.

B6: SEQ ID NO: 29 (peptide)
peptide: Ac-LEGREKVRAK(Ac)I[Aib][Aib]EG[Nle]ST[1Nal]S[Aib]RKK(Ac)-NH2
SMILES: CCCC[C@H](NC(=O)CNC(=O)[C@H](CCC(=O)O)NC(=O)C(C)(C)NC(=O)C(C)(C)NC(=O)[C@@H](NC(=O)[C@H](CCCCNC(C)=O)NC(=O)[C@H](C)NC(=O)[C@H](CCCNC(=N)N)NC(=O)[C@@H](NC(=O)[C@H](CCCCN)NC(=O)[C@H](CCC(=O)O)NC(=O)[C@H](CCCNC(=N)N)NC(=O)CNC(=O)[C@H](CCC(=O)O)NC(=O)[C@H](CC(C)C)NC(C)=O)C(C)C)[C@@H](C)CC)C(=O)N[C@@H](CO)C(=O)N[C@H](C(=O)N[C@@H](Cc1cccc2ccccc12)C(=O)N[C@@H](CO)C(=O)NC(C)(C)C(=O)N[C@@H](CCCNC(=N)N)C(=O)N[C@@H](CCCCN)C(=O)N[C@@H](CCCCNC(C)=O)C(N)=O)[C@@H](C)O
Consider B6, for which the “cAMP assay in OVCAR 5 cells EC50” value was found to be 13.8 nM and the “cAMP assay in OVCAR 5 cells Emax” value came to 98%.

B7: SEQ ID NO: 26 (peptide)
peptide: Ac-LEGREKVRAK(Ac)I[Aib][Aib]EG[Nle]STWSK(Ac)RKKK(Ac)-NH2
SMILES: CCCC[C@H](NC(=O)CNC(=O)[C@H](CCC(=O)O)NC(=O)C(C)(C)NC(=O)C(C)(C)NC(=O)[C@@H](NC(=O)[C@H](CCCCNC(C)=O)NC(=O)[C@H](C)NC(=O)[C@H](CCCNC(=N)N)NC(=O)[C@@H](NC(=O)[C@H](CCCCN)NC(=O)[C@H](CCC(=O)O)NC(=O)[C@H](CCCNC(=N)N)NC(=O)CNC(=O)[C@H](CCC(=O)O)NC(=O)[C@H](CC(C)C)NC(C)=O)C(C)C)[C@@H](C)CC)C(=O)N[C@@H](CO)C(=O)N[C@H](C(=O)N[C@@H](Cc1c[nH]c2ccccc12)C(=O)N[C@@H](CO)C(=O)N[C@@H](CCCCNC(C)=O)C(=O)N[C@@H](CCCNC(=N)N)C(=O)N[C@@H](CCCCN)C(=O)N[C@@H](CCCCN)C(=O)N[C@@H](CCCCNC(C)=O)C(N)=O)[C@@H](C)O
In the case of B7, the “cAMP assay in OVCAR 5 cells EC50” value amounted to 14.5 nM and the “cAMP assay in OVCAR 5 cells Emax” value is 100%.
